Test results as given in article PMC12002099, “Recombinant Production and Characterization of Six Ene‐reductases from Penicillium steckii” (Chembiochem, 2025).

How the values were obtained:
[1] = molecular target: PsOYE2, Class III OYE-type ene-reductase from Penicillium steckii (Penicillium steckii); assay: SEC; PsOYE2 in solution; conditions not shown
[2] = molecular target: PsOYE2, Class III OYE-type ene-reductase from Penicillium steckii (Penicillium steckii); assay: crystal structure; PsOYE2 without any tag, FMN bound; monoclinic space group P2(1), four dimers in the asymmetric unit; 2.3 Å; interface analysed with PISA
[3] = molecular target: PsOYE2, Class III OYE-type ene-reductase from Penicillium steckii (Penicillium steckii); assay: DLS; PsOYE2 in solution; conditions not shown
[4] = tested on: O=C1C=CC(=O)C=C1; assay: steady-state kinetics, NADPH consumption, Michaelis-Menten fit; assay type: biochemical, Penicillium steckii; details: co-substrate NADPH
Source text: steady-state kinetics, NADPH consumption, Michaelis-Menten fit on PsOYE4

[5] = substrate: O=C1C=CC(=O)C=C1; assay: as above; assay type: biochemical, Penicillium steckii; details: co-substrate NADPH; remark: listed apart in the source
Source text: (§1) steady-state kinetics, NADPH consumption, Michaelis-Menten fit on PsOYE2

[6] = substrate: NC(=O)C1=CN([C@@H]2O[C@H](COP(=O)(O)OP(=O)(O)OC[C@H]3O[C@@H](n4cnc5c(N)ncnc54)[C@H](OP(=O)(O)O)[C@@H]3O)[C@@H](O)[C@H]2O)C=CC1; assay: as above; assay type: biochemical, Penicillium steckii; details: co-substrate p-benzoquinone
Source text: as §1

[7] = substrate: O=C1C=CC(=O)C=C1; assay: as above; assay type: biochemical, Penicillium steckii; details: co-substrate NADPH; remark: listed apart in the source
Source text: (§2) steady-state kinetics, NADPH consumption, Michaelis-Menten fit on PsOYE5

[8] = substrate: NC(=O)C1=CN([C@@H]2O[C@H](COP(=O)(O)OP(=O)(O)OC[C@H]3O[C@@H](n4cnc5c(N)ncnc54)[C@H](OP(=O)(O)O)[C@@H]3O)[C@@H](O)[C@H]2O)C=CC1; assay: as above; assay type: biochemical, Penicillium steckii; details: co-substrate p-benzoquinone; remark: listed apart in the source
Source text: as §2

[9] = substrate: O=C1C=CC(=O)C=C1; assay: as above; assay type: biochemical, Penicillium steckii; details: co-substrate NADPH; remark: listed apart in the source
Source text: (§3) steady-state kinetics, NADPH consumption, Michaelis-Menten fit on PsOYE3

[10] = substrate: NC(=O)C1=CN([C@@H]2O[C@H](COP(=O)(O)OP(=O)(O)OC[C@H]3O[C@@H](n4cnc5c(N)ncnc54)[C@H](OP(=O)(O)O)[C@@H]3O)[C@@H](O)[C@H]2O)C=CC1; assay: as above; assay type: biochemical, Penicillium steckii; details: co-substrate p-benzoquinone; remark: listed apart in the source
Source text: as §3

[11] = substrate: O=C1C=CC(=O)C=C1; assay: as above; assay type: biochemical, Penicillium steckii; details: co-substrate NADPH; remark: listed apart in the source
Source text: (§4) steady-state kinetics, NADPH consumption, Michaelis-Menten fit on PsOYE1

[12] = substrate: NC(=O)C1=CN([C@@H]2O[C@H](COP(=O)(O)OP(=O)(O)OC[C@H]3O[C@@H](n4cnc5c(N)ncnc54)[C@H](OP(=O)(O)O)[C@@H]3O)[C@@H](O)[C@H]2O)C=CC1; assay: as above; assay type: biochemical, Penicillium steckii; details: co-substrate p-benzoquinone; remark: listed apart in the source
Source text: as §4

[13] = substrate: O=C1C=CC(=O)C=C1; assay: as above; assay type: biochemical, Penicillium steckii; details: co-substrate NADPH; remark: listed apart in the source
Source text: (§5) steady-state kinetics, NADPH consumption, Michaelis-Menten fit on PsOYE6

[14] = substrate: NC(=O)C1=CN([C@@H]2O[C@H](COP(=O)(O)OP(=O)(O)OC[C@H]3O[C@@H](n4cnc5c(N)ncnc54)[C@H](OP(=O)(O)O)[C@@H]3O)[C@@H](O)[C@H]2O)C=CC1; assay: as above; assay type: biochemical, Penicillium steckii; details: co-substrate p-benzoquinone; remark: listed apart in the source
Source text: as §5

## PsOYE2, Class III OYE-type ene-reductase from Penicillium steckii (enzyme)
[1]
  stoichiometry N: 2
[2]
  stoichiometry N: 2
[3]
  stoichiometry N: 2

## PsOYE4 (Penicillium steckii)
[4]
  Km: 1100 ± 100 µM
  kcat: 28 ± 1 s⁻¹
  kcat/Km: 26000 M⁻¹ s⁻¹

B1: PsOYE2 (Penicillium steckii) (protein)
chain: MTWPDVPIAAAPGISYFTPAQSPPAGTARNPQTSGKAIPKLFQPLTIRGHTFQNRLGVAPMCQYSADDGHLTPWHMAHYGGIAQRGPGMIIIEATGVVPEGRITPGCVGLWKDSQIAPLKQVVEFAHSQGQKIGIQLAHAGRKASTVPPWLGGVTATNAVGGWTENVKGPSAIPFAEGEIVPKAMTKEDIEEVKTAWVAAVERAVAAGVDFIEIHNAHGYLLSSFLSPSSNQRTDDYGGSFENRIRLSLEISQLTRDTVGPNMPVFLRVSATDWLEKSMPEEKGWKLEDTVEFSRALAAQGAIDLIDISTGGVHAAQKVTSGVGFQVPFAKAVKEAVGQKMLVSAVGTINSGNLAEKILNEDDVDVILVGRAFQRDSGLAWAFAKDLDVEIAMAGQIRWGFTSFRNASEYIQPNSMKASIFD
[5]
  Km: 2 ± 1 µM
[6]
  Km: 500 ± 100 µM
  kcat: 70 ± 10 s⁻¹
  kcat/Km: 140000 M⁻¹ s⁻¹

B2: PsOYE5 (Penicillium steckii) (protein)
chain: MSSSAATRFECADVDPSVLGQPLQFTFSGRSAPNRFLKGAMSERLASFSYSDLSARGIPSPTLIQAYKGWGESQIGINLTGNVMIDPGHLEAAGNPVIPRNAEFSGERFERFKELATAGKENGMLIIAQVGHPGRQTPQYLQPNPISASDVQVQGEPMGMKFAQPRAATHEDIANIIDGFAHAAEYLDKAGFDGIELHGAHGYLLSQFLSSATNLRTDQYGGDLKNRMRLILEVRDEIAKRVRKDFVVGIKINSVEFQDKGFQPDDAKELCRALEEHAFDFVELSGGTYEKSPFAEQKRPSTIERESLFLDFARLIVPGLTKTKTYVTGGFKTVEAMVKALETVDGVGLGRPLCQEPNLCAHILSGKVKGAIDQKIDMYNFGATAGAAGVQIQQMGNHLQPIDLSQEENVGKLFAALGPWLAARQKDVELYRSPAVADYVVPYSKTSML
[7]
  Km: 900 ± 100 µM
  kcat: 23.2 ± 0.9 s⁻¹
  kcat/Km: 26000 M⁻¹ s⁻¹
[8]
  Km: 500 ± 200 µM
  kcat: 70 ± 14 s⁻¹
  kcat/Km: 150000 M⁻¹ s⁻¹

B3: PsOYE3 (Penicillium steckii) (protein)
chain: MAQSNHPDIANKPAEGISYYTPAQVPPAGSAAIPQSDGAQPPKLFTPFQVRGVTFHNRIGLSPLCQYSADDGHMTDWHMAHLGGIAQRGPGFLMVEATAVQANGRITPQDHGLWKDSQIEPLRRVVEFIHSQNQVIGVQLAHAGRKASTVAPWLSSADTATEAVGGWPENVKGPSDIPFHDKFPVPKALTLNEIEQFKQDWVSALKRAVKAGADFVEIHNAHGYLLMSFLSPASNKRTDQYGGSFENRIRLTMEIAQLTRDNIPKDMPVFLRVSATDWLEEAMPNEPSWRIEDTVQLAKALADSGNIDVLDVSSGGNHRAQHIHAKAAFQAPFAIEVKKAVGDRLQVGSVGMIDSAQLASSLLENDGLDFVLVGRGFQKNPGLVWAWAEELDVEISMANQIRWGFSSRGGGVYLKKRHGKM
[9]
  Km: 8 ± 1 µM
  kcat: 19.6 ± 1.3 s⁻¹
  kcat/Km: 2.45e+06 M⁻¹ s⁻¹
[10]
  Km: 200 ± 0 µM
  kcat: 64 ± 4 s⁻¹
  kcat/Km: 350000 M⁻¹ s⁻¹

B4: PsOYE1 (Penicillium steckii) (protein)
chain: MTIQYISGEESGLFRPLTISNGSLTLRHRIIHAPLTRNRGVPANPISTPENPNRIWVPGDLIAEYYGQRATEGGLLISEGIPPSLESNGMPGVPGLFTPEQANGWKKVVDAVHAKGGFIFCQLWHAGRATIPQMTGSPAVCPSASVWDSPKECYSHPPVGSTEPVPYANHPPIELSVPHIKQTIQDYCNAAKTAMEIGFDGVEIHGGNGYLPEQFLSSNINKRTDDYGGSPEKRCKFVFELMDEVAKTIGEQNLSIRLSPFGLFNQARGEQRLETWTHLCEGLKKAHPALSYVSFVEPRFEQIFSEEEKDTFLQSWGLKDVTLDRFRKIFGETPFFSAGGFDDKNSWNIVESGKYDGLLFGRYFISNPDLVHRLAKGLPLAPYDRTRFYGPFEDNVFHYTDYPTIDKQ
[11]
  Km: 700 ± 100 µM
  kcat: 23.4 ± 1 s⁻¹
  kcat/Km: 33000 M⁻¹ s⁻¹
[12]
  Km: 300 ± 100 µM
  kcat: 63 ± 8 s⁻¹
  kcat/Km: 200000 M⁻¹ s⁻¹

B5: PsOYE6 (Penicillium steckii) (protein)
chain: MSSKLFNPMQVGRMQLSTRLAMAPMTRFRVDDDHNPLPIVKDYYAQRGSIPGTLLITEATIISPQAGGYKNVPGIYTDSQIAAWKEITDAVHAKGSYIYLQLWALGRVADPNYLRELGNYDLVSASDIPAGEGAPTPRPLSESDIQSFVKDYAQAAKNAVAAGFDGVEIHAANGYLIDQFIQDNSNQRNDSYGGSVENRARFALEVTQAVVDAIGADRTGIRYSPFSTFQGMRMADPIPQFSYLAKETAKFKLAFTHLVEPRIAGNADVEETPDELEFFLKEYGNATPVIIAGGYKAESAIQAVDEKYKEFDTVIGIGRPWTSNPDLPFRIKANVPLVPYDRDTFYNPKDPKGYIDWAFSPEFKATQVGA
[13]
  Km: 1100 ± 100 µM
  kcat: 25.5 ± 0.9 s⁻¹
  kcat/Km: 23000 M⁻¹ s⁻¹
[14]
  Km: 300 ± 100 µM
  kcat: 53 ± 7 s⁻¹
  kcat/Km: 170000 M⁻¹ s⁻¹
